Experimental findings from patent US5208158A, “Oxidation stable detergent enzymes” (Novo Nordisk A/S, priority 1990, dated 1993) are described below.

Changes are numbered by the printed parent chain. In names and notes the source's numbering stands.

Common to all, as to type: biochemical
Data set [1] deals with T1, Subtilisin-309 variant Subtilisin-309-M222C-SM (M222C chemically modified with MMTS) (Lederbergia lenta, UniProt P29600, M216C).
T1 construct: made in house
T1 sequence (P29600 1-269 M216C): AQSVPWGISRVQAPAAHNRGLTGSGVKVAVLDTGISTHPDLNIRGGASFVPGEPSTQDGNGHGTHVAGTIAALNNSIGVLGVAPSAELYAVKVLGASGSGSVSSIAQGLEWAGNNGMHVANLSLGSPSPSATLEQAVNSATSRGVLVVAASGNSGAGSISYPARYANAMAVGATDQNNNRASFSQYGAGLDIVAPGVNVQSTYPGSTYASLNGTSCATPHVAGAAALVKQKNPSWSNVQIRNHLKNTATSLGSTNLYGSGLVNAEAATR
Put plainly: Titration of the enzyme with phenyl-Hg-Cl. Conditions: excess of phenyl-Hg-Cl relative to enzyme of 2.5. From the text:
(§1) As a further control, the enzyme was titrated with phenyl-Hg-Cl. When subtilisin-309-M222C is modified with phenyl-Hg-Cl, the activity decreases. When the ratio phenyl-Hg-Cl/WT exceeds 1, the activity constantly remains 10% of the activity of the non-modified enzyme, corresponding to 1 group per enzyme being modified.

The target in data set [2] is T2, Subtilisin-309 variant Subtilisin-309-M222C (Lederbergia lenta, UniProt P29600, M216C).
T2 construct: made in house
T2 sequence (P29600 1-269 M216C): T1 sequence (P29600 1-269 M216C)
Put plainly: Titration of the enzyme with phenyl-Hg-Cl. The conditions noted are these: ratio phenyl-Hg-Cl/enzyme exceeds 1.
Excerpt: as §1

Substrate in data set [3]: C[C@H](NC(=O)CCC(=O)O)C(=O)N[C@@H](C)C(=O)N1CCC[C@H]1C(=O)N[C@@H](Cc1ccccc1)C(=O)Nc1ccc([N+](=O)[O-])cc1
As to the kind of experiment: Kinetic characterization, cleavage of Suc-Ala-Ala-Pro-Phe-pNA monitored at 410 nm. The conditions noted are these: other: 50 mM Bicine, 2 mM CaCl2, 0.1 M KCl, pH 8.5, 25° C., substrate 0.2 to 6.5 mM. The protocol:
The proteolytic activity can be monitored spectrophotometrically at 25° C., following the degradation of the peptide substrates Suc-Ala-Ala-Pro-Phe-pNA (Suc=Succinyl and pNA=p-nitro-anilid) or DMC (dimethyl-casein), and subsequent calculation of the kinetic parameters kcat. and KM.
For kinetic characterization, the savinase enzymes were assayed in:
50 μl X mM Suc-Ala-Ala-Pro-Phe-pNA in DMF
wherein the cleavage of substrate between Phe and pNA (p-nitro-anilid) is monitored spectrophotometrically at 410 nm, Δε=8500M^-1 cm^-1. The enzymatic concentrations are determined from the absorption at 280 nm, using Δε28 determined from the amino acid composition, Δε280 =23217M^-1 cm^-1.
The kinetic parameters kcat and KM are determined from a direct fit of the initial velocities at 7 concentrations of substrate to the Michaelis Menten equation. The […], X, is varied from 4 to 131 mM, so that the concentration of the substrate in assay varies from 0.2 to 6.5 mM. Thus selected around the KM value of the enzymes.

On to `[Cl][Hg][c]1ccccc1` [phenyl-Hg-Cl], for which the “activity change on reaction with phenyl-Hg-Cl” value in data set [1] is “no activity change is observed”. For the same molecule, in data set [2], the “activity remaining, of the activity of the non-modified enzyme” value was determined as 10%.

B1: Subtilisin-309 (wild type) (Lederbergia lenta) (protein)
chain: T1 sequence (P29600 1-269 M216C) with C216M
Consider B1, for which, in data set [3], the Km (in general, the concentration of substrate that gives half-maximal velocity) worked out at 1760 µM; the kcat (commonly the number of substrate molecules converted per active site and unit of time at saturation) turned out to be 91.2 ± 1.0 s⁻¹; the kcat/Km is given as 52 S^-1 mM^-1.

B2: Subtilisin-309 variant Subtilisin-309-M222C (Lederbergia lenta; M216C) (protein)
chain: T1 sequence (P29600 1-269 M216C)
notes: made in house
With B2, in data set [3], the Km came out at 1820 µM, the kcat was 43.2 ± 0.03 s⁻¹ and the kcat/Km amounted to 23.8 S^-1 mM^-1.
